Target: acetylcholine receptor
Experiment: SPR, receptor immobilized, peptide 10 uM

Row | Binding affinity [RU] | Binding affinity (RU) | Binder
1 | 137 | – | RGQYKR [6mer-2-199]
2 | 126 | – | RGQYRR [6mer-2-197]
3 | 148 | – | KLFLRR [6mer-2-201]
4 | 127 | – | RQQCKK [6mer-2-173]
5 | 145 | – | KLFQKR [6mer-2-167]
6 | – | 12 | RDTMKK [6mer-2-805]
7 | 127 | – | KWISKR [6mer-2-193]
8 | 135 | – | KQLLKR [6mer-2-146]
9 | 121 | – | KSQRKK [6mer-2-196]
10 | 136 | – | KRILKR [6mer-2-150]
11 | – | 24 | KETKRR [6mer-2-802]
12 | 127 | – | RQYYRK [6mer-2-159]
13 | 154 | – | KLRLRK [6mer-2-194]
14 | 142 | – | RLRLKR [6mer-2-180]
15 | – | 30 | KHCVRK [6mer-2-806]
16 | 145 | – | KGQYKK [6mer-2-148]
17 | – | 28 | KIWNRK [6mer-2-807]
18 | 148 | – | KVYLKR [6mer-2-190]
19 | 128 | – | RQYYKK [6mer-2-145]
20 | – | 21 | RNCGKR [6mer-2-804]
21 | 144 | – | RWIYRR [6mer-2-176]
22 | 139 | – | KWFTRR [6mer-2-165]
23 | 145 | – | KRRRRK [6mer-2-187]
24 | 136 | – | KWVSRR [6mer-2-184]
25 | 153 | – | RSYRKK [6mer-2-157]
26 | – | 18 | REPWRR [6mer-2-809]
27 | 121 | – | RRVYRR [6mer-2-179]

Row | Binding affinity [RU] | Binding affinity (RU) | Binder
28 | 149 | – | KWFYRR [6mer-2-163]
29 | 135 | – | KVFCKK [6mer-2-137]
30 | 139 | – | KWYYRK [6mer-2-198]
31 | 133 | – | KSIRRK [6mer-2-144]
32 | 139 | – | RQFYKR [6mer-2-152]
33 | 137 | – | RGYQKR [6mer-2-185]
34 | 127 | – | KGQQRK [6mer-2-149]
35 | 128 | – | RRVCRR [6mer-2-143]
36 | 153 | – | KQRRRK [6mer-2-138]
37 | – | 24 | RPNIRK [6mer-2-801]
38 | 139 | – | KGVYKK [6mer-2-155]
39 | 133 | – | RWFSKK [6mer-2-192]
40 | 139 | – | KLFYKK [6mer-2-182]
41 | – | 18 | KHAKKK [6mer-2-810]
42 | 142 | – | KQLRKR [6mer-2-151]
43 | 154 | – | KWRRKK [6mer-2-161]
44 | – | 13 | KCSAKK [6mer-2-799]
45 | 145 | – | RSFLRR [6mer-2-158]
46 | 154 | – | RQLLKR [6mer-2-191]
47 | 124 | – | RVYSRR [6mer-2-153]
48 | 127 | – | KGLQRR [6mer-2-156]
49 | 142 | – | KGRLKK [6mer-2-140]
50 | 135 | – | KRQRRK [6mer-2-164]
51 | 142 | – | RGYTKR [6mer-2-188]
52 | 137 | – | KVYLRK [6mer-2-175]
53 | – | 18 | RNKERK [6mer-2-803]
54 | 121 | – | RGVQRK [6mer-2-200]

Row | Binding affinity [RU] | Binding affinity (RU) | Binder
55 | 121 | – | RVRRKK [6mer-2-160]
56 | 154 | – | KSRQKR [6mer-2-195]
57 | 148 | – | KRVTKR [6mer-2-154]
58 | 136 | – | RSVTKK [6mer-2-177]
59 | 135 | – | RVFLKR [6mer-2-168]
60 | 139 | – | RQQTRR [6mer-2-171]
61 | 125 | – | RWLRKR [6mer-2-166]
62 | 149 | – | KLFRKK [6mer-2-139]
63 | 121 | – | RWVLRR [6mer-2-142]
64 | – | 151 | RRRIQR [6mer-1-201]
65 | 154 | – | RLQLRR [6mer-2-183]
66 | 142 | – | KLLRKR [6mer-2-174]
67 | 127 | – | KQICRK [6mer-2-186]
68 | 128 | – | RQYQKK [6mer-2-170]
69 | – | 142 | RKLYQR [6mer-1-200]
70 | 123 | – | KRQSRR [6mer-2-169]
71 | 136 | – | KVISKR [6mer-2-162]
72 | 139 | – | RWQQKK [6mer-2-181]
73 | – | 11 | RTAWKK [6mer-2-800]
74 | 133 | – | RQYTKR [6mer-2-147]
75 | – | 151 | KKQVQK [6mer-1-199]
76 | 121 | – | RWQCKK [6mer-2-189]
77 | 133 | – | KWLLRR [6mer-2-178]
78 | 128 | – | KVIRKK [6mer-2-172]
79 | – | 21 | RKKFKK [6mer-2-808]
80 | 154 | – | KWYQKK [6mer-2-141]
